Experiments:
[1] = molecular target: human PD-L1 on HCC827 cells (human) (UniProt Q9NZQ7); assay: FACS on HCC827 cells
[2] = molecular target: PD-L1-his (QPP09) (human) (UniProt Q9NZQ7); assay: ELISA, PD-L1 captured by coated anti-HIS antibody
Sequence of PD-L1-his (QPP09) (human) (Q9NZQ7 19-239 limits assumed): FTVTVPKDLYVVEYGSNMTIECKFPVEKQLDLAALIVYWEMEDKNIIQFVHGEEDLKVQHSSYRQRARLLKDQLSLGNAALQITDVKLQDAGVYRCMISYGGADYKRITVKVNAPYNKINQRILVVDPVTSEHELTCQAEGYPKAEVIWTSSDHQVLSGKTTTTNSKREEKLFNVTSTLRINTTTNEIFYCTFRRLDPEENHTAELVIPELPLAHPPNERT

Sequence of human PD-L1 on HCC827 cells (human) (Q9NZQ7 19-290): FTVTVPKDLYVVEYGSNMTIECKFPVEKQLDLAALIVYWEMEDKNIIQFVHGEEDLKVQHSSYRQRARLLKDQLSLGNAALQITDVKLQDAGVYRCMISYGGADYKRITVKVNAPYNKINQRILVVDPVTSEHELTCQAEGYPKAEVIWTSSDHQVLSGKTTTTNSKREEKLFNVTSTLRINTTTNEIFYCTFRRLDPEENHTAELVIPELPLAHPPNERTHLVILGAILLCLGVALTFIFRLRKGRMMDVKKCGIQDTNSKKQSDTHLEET

EC50 [1]: 0.109 nM
EC50 [2]: 0.0919 nM
Substance: Tecentriq (antibody)

Source: patent US20250326840A1
